Target: eukaryotic initiation factor 4E (eIF4E) (human (endogenous in HEK293T)) (UniProt P06730)
Assay: pull-down; eIF4E captured from HEK293T lysate (1 mg protein) on m7GTP-agarose (cap analog), 4 °C, 90 min, 50 mM HEPES pH 7.4, 50 mM NaCl; eluted with 0.5 mM m7GTP; blots for eIF4E and 4EBP1; cells in complete medium or medium without His, Arg, Leu or Met for 12 h, or transfected with empty vector, wild-type or T37A/T46A 4EBP1 for 24 h

UniProt P06730, sequence (P06730 whole entry): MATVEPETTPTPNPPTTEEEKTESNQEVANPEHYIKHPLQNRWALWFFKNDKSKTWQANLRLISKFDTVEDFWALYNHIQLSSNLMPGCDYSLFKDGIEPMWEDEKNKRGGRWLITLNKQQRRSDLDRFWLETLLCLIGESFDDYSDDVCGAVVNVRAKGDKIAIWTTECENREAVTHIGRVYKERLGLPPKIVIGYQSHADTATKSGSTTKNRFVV

fold of 4EBP1 bound to eIF4E against cells with empty vector: 4 fold
Substance: mutant constitutively active 4EBP1(T37A/T46A) (from UniProt Q60876 1-117) (natural protein)

— article PMC5967319
